Patent US20250340646A1

Legend:
[1] = biological target: PD-L1 on PD-L1 aAPC/CHOK1 cells (Promega J1250); test: cell-based or functional assay
human PD-L1-Fc (human) [2] = biological target: human PD-L1-Fc (human) (UniProt Q9NZQ7); test: SPR, PD-L1-Fc captured, scFv analyte
[3] = biological target: PD-L1 biotinylated (PD-1/PD-L1 TR-FRET assay kit, BPS 72038) (Homo sapiens (Human)) (UniProt Q9NZQ7); test: HTRF competition, competitor PD-1-Eu
human PD-L1-Fc (human) [4] = biological target: human PD-L1-Fc (human) (UniProt Q9NZQ7); test: ELISA, coated PD-L1-Fc, anti-FLAG HRP
[5] = biological target: full-length human PD-L1 on K562 cells (human) (UniProt Q9NZQ7); test: FACS, PD-L1/K562 cells

| Jurkat NFAT reporter assay EC50 [1] [nM] | Kd (human PD-L1-Fc (human) [2]) [nM] | koff (human PD-L1-Fc (human) [2]) [s⁻¹] | kon (human PD-L1-Fc (human) [2]) [M⁻¹ s⁻¹] | IC50 [3] [nM] | EC50 (human PD-L1-Fc (human) [4]) [nM] | EC50 [5] [nM] | Binder |
| --- | --- | --- | --- | --- | --- | --- | --- |
| 129 | 2.94 | 0.000722 | 245000 | 173 | 1.27 |  | 2018EP164-F04 scFv (scFv, part only; not given: linker and tags, not shown: small tags and cut ends) scFv, part: QVQLQQWGAGLLKPSETLSLTCAVYGGSFSGYYWSWIRQPPGKGLEWIGEINHSGSTNYNPSLKSRVTISVDTSKNQFSLKLSSVTAADTAVYYCARGRRLRYFDWAAYNWFDPWGQGTLVTVSSQSALTQDPAVSVALGQTVRITCQGDSLRSHYASWYQQKPGQAPVVVVYDNSDRPSGIPDRFSGSNSGNTATLTISRVEVGDEADYYCQVWDSSSDHYVFGTGTKV |
|  |  |  |  |  |  | 5.8 | 2018EP161-F04 scFv (scFv, part only; not given: linker and tags, not shown: small tags and cut ends) scFv, part: QMQLVQSGAEVKKPGATVKISCKVSGYTFTDYYMHWVQQAPGKGLEWMGLVDPEDGETIYAEKFQGRVTITADTSTDTAYMELSSLRSEDTAVFYCATDGSGSYYLTLGQGTLVTVSSNFMLTQPSSLSASPGASASLTCTLPSGINVGPYGIFWYQQKPGSPPQYLLRYKSNSENHQGSGVPSRFSGSEDASANVGILLISGLQSEDEADYYCMIWHSSAWVFGGGTKVTVL |
